Data published in article PMC10082157.

Columns and labels:
[1] = molecular target: TCR–CD3 complex on T cells (human (endogenous in Jurkat and primary T cells)) (UniProt P07766)
[2] = molecular target: human CD19 (human (endogenous in Raji)) (UniProt P15391)
Chain of human CD19 (human (endogenous in Raji)) (P15391 20-556): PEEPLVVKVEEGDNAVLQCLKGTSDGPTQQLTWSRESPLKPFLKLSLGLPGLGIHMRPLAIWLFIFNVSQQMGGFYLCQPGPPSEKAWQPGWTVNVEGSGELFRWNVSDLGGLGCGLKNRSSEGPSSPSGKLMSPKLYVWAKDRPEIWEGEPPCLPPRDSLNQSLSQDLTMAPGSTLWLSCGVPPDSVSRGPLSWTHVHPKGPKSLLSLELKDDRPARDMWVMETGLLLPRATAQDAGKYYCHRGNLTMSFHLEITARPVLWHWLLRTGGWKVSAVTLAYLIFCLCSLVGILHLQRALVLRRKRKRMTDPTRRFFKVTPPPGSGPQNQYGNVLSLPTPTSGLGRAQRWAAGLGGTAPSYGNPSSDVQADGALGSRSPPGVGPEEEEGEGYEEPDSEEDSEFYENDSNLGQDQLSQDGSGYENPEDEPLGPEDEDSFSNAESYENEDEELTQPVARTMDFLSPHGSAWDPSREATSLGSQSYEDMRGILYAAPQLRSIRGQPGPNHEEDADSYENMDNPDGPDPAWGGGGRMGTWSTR

Chain of TCR–CD3 complex on T cells (human (endogenous in Jurkat and primary T cells)) (P07766 whole entry, looked up, one chain of several): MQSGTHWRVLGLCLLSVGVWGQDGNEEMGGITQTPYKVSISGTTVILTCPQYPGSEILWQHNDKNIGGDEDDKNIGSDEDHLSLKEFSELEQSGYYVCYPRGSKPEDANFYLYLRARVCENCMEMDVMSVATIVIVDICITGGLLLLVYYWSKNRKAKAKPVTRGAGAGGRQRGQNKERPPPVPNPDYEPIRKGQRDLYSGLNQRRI

activation of Jurkat-ZsG NFAT reporter cells (ZsGreen) in droplets with CD19+ Raji cells and 100 ng/ml Blinatumomab; percent activated [1]: 40% | activation of Jurkat-ZsG NFAT reporter cells (ZsGreen) in droplets with CD19+ Raji cells and 100 ng/ml Blinatumomab; percent activated [2]: 40%
Substance: Blinatumomab (CD19xCD3 BiTE) (bispecific antibody)
